How the values were obtained:
[1] = molecular target: C9 TMH-1 lock mutant (C9_(TMH-1 lock), F262C V405C) (human) (UniProt P02748)
[2] = molecular target: C9 TMH-1 lock mutant (C9_(TMH-1 lock), F262C V405C) (human) (UniProt P02748); assay: SDS-PAGE of SDS-stable polymeric-C9, in-gel Cy5 fluorescence; as a3 but 20 nM Cy5-labelled C9 incubated with the C5b-8 labelled bacteria in 10 mM DTT
[3] = molecular target: C9 TMH-1 lock mutant (C9_(TMH-1 lock), F262C V405C) (human) (UniProt P02748); remark: listed apart in the source
[4] = molecular target: C5b-8 (MAC precursor of C5b, C6, C7 and C8) assembled on E. coli (human) (UniProt P01031); assay: flow cytometry on cells; as a1 but Cy5-labelled C9 added with 10 mM DTT (the methods give 20 nM C8 added 15 min before C9 at RT)
[5] = molecular target: C5b-8 (MAC precursor of C5b, C6, C7 and C8) assembled on E. coli (human) (UniProt P01031); assay: flow cytometry on cells; E. coli MG1655 labelled with C5b-7, washed, 10 nM C8 and a concentration range of Cy5-labelled C9 for 30 min; geoMFI
[6] = molecular target: C5b-8 (MAC precursor of C5b, C6, C7 and C8) assembled on E. coli (human) (UniProt P01031); assay: flow cytometry on cells; complement-resistant E. coli that express LPS O-Ag (552059.1, 552060.1, 567705.1, CGSC7740 wbbL+) in 3% C9-depleted serum with 25 nM Cy5-labelled C9 (up to 10-fold more on 552059.1) for 30 min at 37 C; MFI
[7] = molecular target: C5b-8 (MAC precursor of C5b, C6, C7 and C8) assembled on E. coli (human) (UniProt P01031); assay: flow cytometry on cells; E. coli MG1655 labelled with C5b-7 (10% C8-depleted serum, 30 min), washed, 10 nM C8 for 15 min, then 20 nM Cy5-labelled C9 for 30 min, no DTT; RPMI + 0.05% HSA; geoMFI
[8] = molecular target: C5b-8 (MAC precursor of C5b, C6, C7 and C8) assembled on E. coli (human) (UniProt P01031); assay: flow cytometry on cells; complement-sensitive E. coli (MG1655, BW25113, MC1061, 547563.1, CGSC7740 wildtype) in 3% C9-depleted serum with 25 nM Cy5-labelled C9 for 30 min at 37 C; Syto9 trigger; MFI

Chain of wildtype C9 (C9wt) (P02748 22-559): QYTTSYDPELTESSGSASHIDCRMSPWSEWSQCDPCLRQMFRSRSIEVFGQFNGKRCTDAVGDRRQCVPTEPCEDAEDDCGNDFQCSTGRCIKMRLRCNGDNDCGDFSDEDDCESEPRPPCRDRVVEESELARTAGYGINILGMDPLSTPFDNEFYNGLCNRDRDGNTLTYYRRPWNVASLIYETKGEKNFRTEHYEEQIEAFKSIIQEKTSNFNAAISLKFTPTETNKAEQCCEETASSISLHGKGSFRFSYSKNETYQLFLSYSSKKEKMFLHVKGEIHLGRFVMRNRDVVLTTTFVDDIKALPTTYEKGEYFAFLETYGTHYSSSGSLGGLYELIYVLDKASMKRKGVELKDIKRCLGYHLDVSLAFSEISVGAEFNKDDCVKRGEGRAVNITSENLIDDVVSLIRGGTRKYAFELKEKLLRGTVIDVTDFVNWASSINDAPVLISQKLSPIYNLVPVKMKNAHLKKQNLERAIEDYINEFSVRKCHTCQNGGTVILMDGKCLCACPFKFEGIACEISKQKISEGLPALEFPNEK

fold lower polymeric-C9 detection against C9wt with DTT [2] [fold] | fold binding with DTT against C9 (TMH-1 lock) without DTT [4] [fold] | fold lower binding against C9wt with DTT [4] [fold] | fold binding against C9 (TMH-1 lock) [5] [fold] | fold binding against C9 (TMH-1 lock), on 552059.1 with up to 10-fold more C9 [6] [fold] | fold binding against C9 (TMH-1 lock), on CGSC7740 wbbL+ [6] [fold] | fold binding against C9 (TMH-1 lock) [7] [fold] | fold binding against C9 (TMH-1 lock) [8] [fold] | fold binding against C9 (TMH-1 lock), on CGSC7740 wildtype [8] [fold] | Substance | bacterial viability (CFU) of C5b-8 labelled E. coli MG1655 with 100 nM C9, decrease compared to C5b-8 alone [1] [fold] | bacterial viability (CFU) of E. coli MG1655 in 3% C9-depleted serum with 25 nM C9 after 30 min, against C9wt [3] [fold] | outer membrane damage (DiOC2) and inner membrane damage (Sytox) of E. coli MG1655 in 3% C9-depleted serum with 25 nM C9, delay against C9wt [3] [min]
2 to 3 | 3 | 2 to 3 | – | – | – | – | – | – | C9 TMH-1 lock mutant (C9_(TMH-1 lock), F262C V405C) (from UniProt P02748 22-559) (natural protein) | 10 | 1000 | 30
– | – | – | < 10 | 2 to 3 | 2.5 | 10 | 5 to 15 | 12 | wildtype C9 (C9wt) (from UniProt P02748 22-559) (natural protein) | – | – | –
